Assay results published in patent US20210292396A1 (INTERNATIONAL AIDS VACCINE INITIATIVE, published 2021).

Assays:
Experiment in all cases: cell-based or functional assay
[1] = target: HIV Env of isolate T211-9 (HIV)
[2] = target: HIV Env of isolate SC422661.8 (HIV)
[3] = target: HIV Env of isolate ZM109F.PB4 (HIV)
[4] = target: HIV Env of isolate AC10.0.29 (HIV)
[5] = target: HIV Env of isolate 6240_08_TA5_4622 (HIV)
[6] = target: HIV Env of isolate TRJO4551.58 (HIV)
[7] = target: HIV Env of isolate 235-47 (HIV)
[8] = target: HIV Env of isolate RHPA4259.7 (HIV)
[9] = target: HIV Env of isolate 191084_B7-19 (HIV)
HIV Env of isolate CNE58 = HIV Env of isolate CNE58 (HIV)
[10] = target: HIV Env of isolate 0330.v4.c3 (HIV)
[11] = target: HIV Env of isolate HIV-16845-2.22 (HIV)
[12] = target: HIV Env of isolate 62357_14_D3_4589 (HIV)
HIV Env of isolate PVO.4 = HIV Env of isolate PVO.4 (HIV)
[13] = target: HIV Env of isolate 3301.v1.c24 (HIV)
[14] = target: HIV Env of isolate CAP210.2.00.E8 (HIV)
[15] = target: HIV Env of isolate WEAU_d15_410_5017 (HIV)
[16] = target: HIV Env of isolate 3817.v2.c59 (HIV)
[17] = target: HIV Env of isolate 1056_10_TA11_1826 (HIV)
[18] = target: HIV Env of isolate QH0692.42 (HIV)
[19] = target: HIV Env of isolate CAAN5342.A2 (HIV)
[20] = target: HIV Env of isolate 1054_07_TC4_1499 (HIV)
[21] = target: HIV Env of isolate 6244_13_B5_4576 (HIV)
[22] = target: HIV Env of isolate P1981_C5_3 (HIV)
[23] = target: HIV Env of isolate P0402_C2_11 (HIV)
HIV Env of isolate CNE52 = HIV Env of isolate CNE52 (HIV)
[24] = target: HIV Env of isolate T250-4 (HIV)
[25] = target: HIV Env of isolate REJO4541.67 (HIV)
[26] = target: HIV Env of isolate Ce1176_A3 (HIV)
[27] = target: HIV Env of isolate Du156.12 (HIV)
[28] = target: HIV Env of isolate ZM247v1(Rev-) (HIV)
HIV Env of isolate CNE53 = HIV Env of isolate CNE53 (HIV)
[29] = target: HIV Env of isolate BJOX009000.02.4 (HIV)
[30] = target: HIV Env of isolate Du172.17 (HIV)
HIV Env of isolate CNE30 = HIV Env of isolate CNE30 (HIV)
HIV Env of isolate CNE20 = HIV Env of isolate CNE20 (HIV)
[31] = target: HIV Env of isolate 0260.v5.c36 (HIV)
[32] = target: HIV Env of isolate 928-28 (HIV)
[33] = target: HIV Env of isolate ZM214M.PL15 (HIV)
[34] = target: HIV Env of isolate 6480.v4.c25 (HIV)
[35] = target: HIV Env of isolate T251-18 (HIV)
[36] = target: HIV Env of isolate 7030102001E5(Rev-) (HIV)
[37] = target: HIV Env of isolate Q23.17 (HIV)
[38] = target: HIV Env of isolate CAP45.2.00.G3 (HIV)
[39] = target: HIV Env of isolate A07412M1.vrc12 (HIV)

B1: ePGT121.15.H1.L1 (antibody, V domains shown)
VH: QMQLQESGPGLVKPGETLSLTCSVSGASISSSYWSWLRETPGKGLEWIGYTHHSGDTNYAPSLKSRVHLGLHPSKNQVSLSLTSVTAADTAVYYCARTLHGRRIYGVVAFNEWFTYFYWEVWGNGTQVTVSS
VL: SDISVAPGETVRISCGGESIGSRAVQWYQHRAGQAPKLIIYNNQDRPPGIPERFSGSPDIDFGTTATLTITNVEAGDEATYYCHIWDSRRPTNWVFGGGTTLTVL
- neutralization (Table 6 value) [1]: 0.00532
- neutralization (Table 6 value) [2]: 0.00372
- neutralization (Table 6 value) [3]: 2.15
- neutralization (Table 6 value) [4]: 0.00272
- neutralization (Table 6 value) [5]: 0.0052
- neutralization (Table 6 value) [6]: 0.00359
- neutralization (Table 6 value) [7]: 0.0061
- neutralization (Table 6 value) [8]: 0.00233
- neutralization (Table 6 value) [9]: 0.00279
- neutralization (Table 6 value) (HIV Env of isolate CNE58): 0.00795
- neutralization (Table 6 value) [10]: 0.00621
- neutralization (Table 6 value) [11]: 0.0209
- neutralization (Table 6 value) [12]: 0.00982
- neutralization (Table 6 value) (HIV Env of isolate PVO.4): 0.0044
- neutralization (Table 6 value) [13]: 0.00166
- neutralization (Table 6 value) [14]: 0.0229
- neutralization (Table 6 value) [15]: 0.00209
- neutralization (Table 6 value) [16]: 0.00495
- neutralization (Table 6 value) [17]: 0.00391
- neutralization (Table 6 value) [18]: 0.0149
- neutralization (Table 6 value) [19]: 0.00192
- neutralization (Table 6 value) [20]: 0.00167
- neutralization (Table 6 value) [21]: 0.00697
- neutralization (Table 6 value) [22]: 0.00069
- neutralization (Table 6 value) [23]: 0.00268
- neutralization (Table 6 value) (HIV Env of isolate CNE52): 0.0515
- neutralization (Table 6 value) [24]: 0.000854
- neutralization (Table 6 value) [25]: 0.311
- neutralization (Table 6 value) [26]: 0.00282
- neutralization (Table 6 value) [27]: 0.00124
- neutralization (Table 6 value) [28]: 0.00158
- neutralization (Table 6 value) (HIV Env of isolate CNE53): 0.00288
- neutralization (Table 6 value) [29]: 0.0255
- neutralization (Table 6 value) [30]: 0.0024
- neutralization (Table 6 value) (HIV Env of isolate CNE30): 0.00299
- neutralization (Table 6 value) (HIV Env of isolate CNE20): 0.000933
- neutralization (Table 6 value) [31]: 0.00247
- neutralization (Table 6 value) [32]: 0.0868
- neutralization (Table 6 value) [33]: 0.0146
- neutralization (Table 6 value) [34]: 0.000305
- neutralization (Table 6 value) [35]: 0.0274
- neutralization (Table 6 value) [36]: 0.00261
- neutralization (Table 6 value) [37]: 0.00126
- neutralization (Table 6 value) [38]: 3.06
- neutralization (Table 6 value) [39]: 0.000964

B2: PGT-121 (antibody, V domains shown)
VH: QMQLQESGPGLVKPSETLSLTCSVSGASISDSYWSWIRRSPGKGLEWIGYVHKSGDTNYSPSLKSRVNLSLDTSKNQVSLSLVAATAADSGKYYCARTLHGRRIYGIVAFNEWFTYFYMDVWGNGTQVTVSS
VL: SDISVAPGETARISCGEKSLGSRAVQWYQHRAGQAPSLIIYNNQDRPSGIPERFSGSPDSPFGTTATLTITSVEAGDEADYYCHIWDSRVPTKWVFGGGTTLTVLG
- neutralization (Table 6 value) [1]: 0.891
- neutralization (Table 6 value) [2]: 0.0272
- neutralization (Table 6 value) [3]: 0.558
- neutralization (Table 6 value) [4]: 0.029
- neutralization (Table 6 value) [5]: 0.0427
- neutralization (Table 6 value) [6]: 0.406
- neutralization (Table 6 value) [7]: 0.0457
- neutralization (Table 6 value) [8]: 0.00915
- neutralization (Table 6 value) [9]: 0.0247
- neutralization (Table 6 value) (HIV Env of isolate CNE58): 1.28
- neutralization (Table 6 value) [10]: 0.0513
- neutralization (Table 6 value) [11]: 0.25
- neutralization (Table 6 value) [12]: 0.392
- neutralization (Table 6 value) (HIV Env of isolate PVO.4): 0.115
- neutralization (Table 6 value) [13]: 0.00869
- neutralization (Table 6 value) [14]: 0.618
- neutralization (Table 6 value) [15]: 0.0144
- neutralization (Table 6 value) [16]: 0.00949
- neutralization (Table 6 value) [17]: 0.0162
- neutralization (Table 6 value) [18]: 0.176
- neutralization (Table 6 value) [19]: 0.00872
- neutralization (Table 6 value) [20]: 0.0334
- neutralization (Table 6 value) [21]: 0.14
- neutralization (Table 6 value) [22]: 0.00146
- neutralization (Table 6 value) [23]: 0.000423
- neutralization (Table 6 value) (HIV Env of isolate CNE52): 1.94
- neutralization (Table 6 value) [24]: 0.00021
- neutralization (Table 6 value) [25]: 0.286
- neutralization (Table 6 value) [26]: 0.00882
- neutralization (Table 6 value) [27]: 0.00534
- neutralization (Table 6 value) [28]: 0.0114
- neutralization (Table 6 value) (HIV Env of isolate CNE53): 0.00701
- neutralization (Table 6 value) [29]: 0.243
- neutralization (Table 6 value) [30]: 0.0316
- neutralization (Table 6 value) (HIV Env of isolate CNE30): 0.00313
- neutralization (Table 6 value) (HIV Env of isolate CNE20): 0.00147
- neutralization (Table 6 value) [31]: 0.00144
- neutralization (Table 6 value) [32]: 0.836
- neutralization (Table 6 value) [33]: 0.119
- neutralization (Table 6 value) [34]: 0.000306
- neutralization (Table 6 value) [35]: 1.16
- neutralization (Table 6 value) [36]: 0.00679
- neutralization (Table 6 value) [37]: 0.00412
- neutralization (Table 6 value) [38]: 0.0713
- neutralization (Table 6 value) [39]: 0.00949
